The text below walks through data of patent US20190315842A1 (DUKE UNIVERSITY, published 2019).

Broadly, the EC50 is the concentration giving half of the maximal effect.

The target in experiment [1] is T1, 15-mer peptide GPPPPIDNGDITSFP (SEQ ID NO: 114) (human).
T1 construct: Immobilized for SPR; also called parent peptide
T1 peptide: GPPPPIDNGDITSFP
Description: assay and antigen not given; Example 10, epitope mapping on the 15-mer peptide.

The target of experiment [2] is T2, GPPPPIDNGDITSFP(GGGK-biotin).
T2 construct: also called biotinylated 15-mer peptide; biotinylated 19-mer
T2 peptide: GPPPPIDNGDITSFPGGGK(Biotin)
The experiment in a line: ELISA: biotinylated peptide captured on immobilized Neutravidin, antibody at 0.5 µg/ml, anti-human IgG-HRP/ABTS, OD 405 nm. (In an ELISA, binding on a coated surface is turned into a signal by an enzyme label.)

Experiment [3] deals with T3, Complement Factor H (CFH) protein, full-length (human, UniProt P08603 19-1231).
T3 construct: also called full-length CFH; native CFH
The experiment in a line: immunoblot, SDS-PAGE under non-reducing conditions, antibody at 0.5 µg/ml, anti-human IgG-HRP, chemiluminescence; lane numbers as in Table 10. A general note: A western blot detects proteins with antibodies after separation by electrophoresis.

In experiment [4] the target is T4, histidine-tRNA ligase (Jo-1) (UniProt P12081 2-509).
T4 sequence (looked up): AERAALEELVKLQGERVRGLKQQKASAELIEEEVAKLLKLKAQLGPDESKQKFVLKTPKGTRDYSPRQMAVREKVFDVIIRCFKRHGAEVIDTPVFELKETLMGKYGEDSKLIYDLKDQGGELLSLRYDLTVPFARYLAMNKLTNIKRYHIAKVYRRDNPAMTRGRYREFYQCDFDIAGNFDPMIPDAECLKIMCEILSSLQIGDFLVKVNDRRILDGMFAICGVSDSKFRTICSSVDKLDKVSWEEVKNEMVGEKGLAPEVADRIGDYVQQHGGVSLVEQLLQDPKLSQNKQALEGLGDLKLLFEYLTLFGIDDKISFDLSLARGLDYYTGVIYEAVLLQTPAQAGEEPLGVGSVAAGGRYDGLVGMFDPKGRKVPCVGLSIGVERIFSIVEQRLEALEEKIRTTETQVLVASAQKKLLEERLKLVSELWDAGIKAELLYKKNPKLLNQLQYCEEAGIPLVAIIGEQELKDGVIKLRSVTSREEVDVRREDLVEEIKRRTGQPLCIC
The experiment in a line: AtheNA Multi-Lyte ANA, Ab at 12.5 ug/ml.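 Further: monoclonal antibodies screened for binding to a panel of nuclear autoantigens (SSA, SSB, Sm, RNP, Scl-70, Jo-1, dsDNA, CentB, histones), with anti-HIV and anti-RSV antibodies as controls.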

For experiment [5], the target named is T5, sclerosis autoantigen (Scl-70) (UniProt P11387 2-765, limits assumed).
T5 sequence (looked up): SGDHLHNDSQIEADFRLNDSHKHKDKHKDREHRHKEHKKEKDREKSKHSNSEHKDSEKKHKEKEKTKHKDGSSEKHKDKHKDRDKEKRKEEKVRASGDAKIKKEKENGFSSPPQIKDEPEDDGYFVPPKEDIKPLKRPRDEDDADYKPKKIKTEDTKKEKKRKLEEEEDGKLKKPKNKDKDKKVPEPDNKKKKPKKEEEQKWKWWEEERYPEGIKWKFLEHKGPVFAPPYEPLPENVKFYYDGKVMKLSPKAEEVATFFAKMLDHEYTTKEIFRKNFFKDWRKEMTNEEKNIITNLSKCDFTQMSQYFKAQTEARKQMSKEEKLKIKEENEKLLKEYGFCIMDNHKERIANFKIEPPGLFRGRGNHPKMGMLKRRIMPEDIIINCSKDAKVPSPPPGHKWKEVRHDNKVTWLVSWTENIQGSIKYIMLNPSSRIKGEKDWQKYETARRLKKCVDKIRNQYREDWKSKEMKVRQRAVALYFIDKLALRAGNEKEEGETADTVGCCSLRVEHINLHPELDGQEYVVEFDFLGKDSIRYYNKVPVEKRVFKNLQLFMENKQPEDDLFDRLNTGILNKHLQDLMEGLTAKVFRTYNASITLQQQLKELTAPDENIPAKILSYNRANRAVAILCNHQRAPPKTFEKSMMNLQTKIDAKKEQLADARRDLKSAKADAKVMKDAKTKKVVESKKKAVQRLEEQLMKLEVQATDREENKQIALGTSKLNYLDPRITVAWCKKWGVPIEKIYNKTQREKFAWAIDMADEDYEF
The experiment in a line: AtheNA Multi-Lyte ANA, Ab at 12.5 ug/ml.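 Further: monoclonal antibodies screened for binding to a panel of nuclear autoantigens (SSA, SSB, Sm, RNP, Scl-70, Jo-1, dsDNA, CentB, histones), with anti-HIV and anti-RSV antibodies as controls.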

In experiment [6] the target is T6, Sm (sphingomyelin).
T6 construct: in an ANA panel of nuclear antigens Sm is usually the Smith ribonucleoprotein antigen; Kept, but see recheck
The experiment in a line: AtheNA Multi-Lyte ANA, Ab at 12.5 ug/ml.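 Further: monoclonal antibodies screened for binding to a panel of nuclear autoantigens (SSA, SSB, Sm, RNP, Scl-70, Jo-1, dsDNA, CentB, histones), with anti-HIV and anti-RSV antibodies as controls.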

The target in experiment [7] is ribonucleoprotein (RNP). Description: AtheNA Multi-Lyte ANA, Ab at 12.5 ug/ml.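 Further: monoclonal antibodies screened for binding to a panel of nuclear autoantigens (SSA, SSB, Sm, RNP, Scl-70, Jo-1, dsDNA, CentB, histones), with anti-HIV and anti-RSV antibodies as controls.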
The target in experiment [8] is systemic lupus erythematosus autoantigen SSA. The experiment in a line: AtheNA Multi-Lyte ANA, Ab at 12.5 ug/ml.
In experiment [9] the target is T7, systemic lupus erythematosus autoantigen SSB (UniProt P05455 1-408, limits assumed).
T7 sequence (looked up): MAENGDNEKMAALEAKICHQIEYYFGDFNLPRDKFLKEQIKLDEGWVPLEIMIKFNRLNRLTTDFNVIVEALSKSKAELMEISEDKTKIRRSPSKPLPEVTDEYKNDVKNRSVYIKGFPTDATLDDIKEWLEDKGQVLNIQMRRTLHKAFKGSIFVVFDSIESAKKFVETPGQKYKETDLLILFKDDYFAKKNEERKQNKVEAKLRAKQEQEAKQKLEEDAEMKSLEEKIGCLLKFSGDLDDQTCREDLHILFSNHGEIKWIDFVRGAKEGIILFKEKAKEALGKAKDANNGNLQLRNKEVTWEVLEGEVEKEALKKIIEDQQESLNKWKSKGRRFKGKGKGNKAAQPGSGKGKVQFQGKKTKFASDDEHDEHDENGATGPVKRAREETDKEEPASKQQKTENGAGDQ
Description: AtheNA Multi-Lyte ANA, Ab at 12.5 ug/ml.

Experiment [10] concerns the target T4, histidine-tRNA ligase (Jo-1). Description: AtheNA Multi-Lyte ANA, Ab at 50 ug/ml.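 Further: monoclonal antibodies probed against a nuclear autoantigen panel (SSA, SSB, Sm, RNP, Scl-70, Jo-1, dsDNA, CentB, histones), with anti-HIV 4E10 and palivizumab as control antibodies.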
For experiment [11], the target named is T5, sclerosis autoantigen (Scl-70). The experiment in a line: AtheNA Multi-Lyte ANA, Ab at 50 ug/ml.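 Further: monoclonal antibodies probed against a nuclear autoantigen panel (SSA, SSB, Sm, RNP, Scl-70, Jo-1, dsDNA, CentB, histones), with anti-HIV 4E10 and palivizumab as control antibodies.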
In experiment [12] the target is T6, Sm (sphingomyelin). The experiment in a line: AtheNA Multi-Lyte ANA, Ab at 50 ug/ml.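 Further: monoclonal antibodies probed against a nuclear autoantigen panel (SSA, SSB, Sm, RNP, Scl-70, Jo-1, dsDNA, CentB, histones), with anti-HIV 4E10 and palivizumab as control antibodies.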
Experiment [13] has as its target ribonucleoprotein (RNP). Description: AtheNA Multi-Lyte ANA, Ab at 50 ug/ml.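 Further: monoclonal antibodies probed against a nuclear autoantigen panel (SSA, SSB, Sm, RNP, Scl-70, Jo-1, dsDNA, CentB, histones), with anti-HIV 4E10 and palivizumab as control antibodies.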
Experiment [14] deals with systemic lupus erythematosus autoantigen SSA. The experiment in a line: AtheNA Multi-Lyte ANA, Ab at 50 ug/ml.
Experiment [15] deals with T7, systemic lupus erythematosus …. The experiment in a line: AtheNA Multi-Lyte ANA, Ab at 50 ug/ml.
Experiment [16] has as its target T8, reduced form of Complement Factor H (CFH), treated with TCEP (human, UniProt P08603 19-1231, disulfides reduced with 10 mM TCEP).
T8 construct: also called reduced CFH; reduced form of CFH
The experiment in a line: immunoblot, SDS-PAGE under reducing conditions, antibody at 0.5 µg/ml, anti-human IgG-HRP, chemiluminescence; lane numbers as in Table 10.

Experiment [17] concerns the target T4, histidine-tRNA ligase (Jo-1). The experiment in a line: AtheNA Multi-Lyte ANA, Ab at 6.25 ug/ml.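 Further: monoclonal antibodies screened for reactivity against a panel of nuclear autoantigens, with an anti-HIV and an anti-RSV monoclonal antibody serving as controls.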
Experiment [18] has as its target T5, sclerosis autoantigen (Scl-70). The experiment in a line: AtheNA Multi-Lyte ANA, Ab at 6.25 ug/ml.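 Further: monoclonal antibodies screened for reactivity against a panel of nuclear autoantigens, with an anti-HIV and an anti-RSV monoclonal antibody serving as controls.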
Experiment [19] concerns the target T6, Sm (sphingomyelin). The experiment in a line: AtheNA Multi-Lyte ANA, Ab at 6.25 ug/ml.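 Further: monoclonal antibodies screened for reactivity against a panel of nuclear autoantigens, with an anti-HIV and an anti-RSV monoclonal antibody serving as controls.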
The target in experiment [20] is ribonucleoprotein (RNP). Description: AtheNA Multi-Lyte ANA, Ab at 6.25 ug/ml.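 Further: monoclonal antibodies screened for reactivity against a panel of nuclear autoantigens, with an anti-HIV and an anti-RSV monoclonal antibody serving as controls.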
Experiment [21] deals with systemic lupus erythematosus autoantigen SSA. The experiment in a line: AtheNA Multi-Lyte ANA, Ab at 6.25 ug/ml.
Experiment [22] deals with T7, systemic lupus erythematosus …. Description: AtheNA Multi-Lyte ANA, Ab at 6.25 ug/ml.
The target in experiment [23] is T6, Sm (sphingomyelin). Description: AtheNA Multi-Lyte ANA, Ab at 3.538 ug/ml.
In experiment [24] the target is ribonucleoprotein (RNP). Description: AtheNA Multi-Lyte ANA, Ab at 3.538 ug/ml.
Experiment [25] has as its target systemic lupus erythematosus autoantigen SSA. Description: AtheNA Multi-Lyte ANA, Ab at 3.538 ug/ml.
Experiment [26] addresses T6, Sm (sphingomyelin). The experiment in a line: AtheNA Multi-Lyte ANA, Ab at 7.075 ug/ml.
Experiment [27] addresses ribonucleoprotein (RNP). Description: AtheNA Multi-Lyte ANA, Ab at 7.075 ug/ml.
Experiment [28] deals with systemic lupus erythematosus autoantigen SSA. Description: AtheNA Multi-Lyte ANA, Ab at 7.075 ug/ml.
In experiment [29] the target is T6, Sm (sphingomyelin). Description: AtheNA Multi-Lyte ANA, Ab at 28.3 ug/ml.
The target of experiment [30] is ribonucleoprotein (RNP). Description: AtheNA Multi-Lyte ANA, Ab at 28.3 ug/ml.
The target of experiment [31] is systemic lupus erythematosus autoantigen SSA. The experiment in a line: AtheNA Multi-Lyte ANA, Ab at 28.3 ug/ml.

Where no end group is shown, it is not given here. The star is where a group is joined. Biotin = O=C1N[C@H]2[C@H](CS[C@H]2CCCCC(=O)*)N1

T3 sequence (P08603 19-1231 limits assumed): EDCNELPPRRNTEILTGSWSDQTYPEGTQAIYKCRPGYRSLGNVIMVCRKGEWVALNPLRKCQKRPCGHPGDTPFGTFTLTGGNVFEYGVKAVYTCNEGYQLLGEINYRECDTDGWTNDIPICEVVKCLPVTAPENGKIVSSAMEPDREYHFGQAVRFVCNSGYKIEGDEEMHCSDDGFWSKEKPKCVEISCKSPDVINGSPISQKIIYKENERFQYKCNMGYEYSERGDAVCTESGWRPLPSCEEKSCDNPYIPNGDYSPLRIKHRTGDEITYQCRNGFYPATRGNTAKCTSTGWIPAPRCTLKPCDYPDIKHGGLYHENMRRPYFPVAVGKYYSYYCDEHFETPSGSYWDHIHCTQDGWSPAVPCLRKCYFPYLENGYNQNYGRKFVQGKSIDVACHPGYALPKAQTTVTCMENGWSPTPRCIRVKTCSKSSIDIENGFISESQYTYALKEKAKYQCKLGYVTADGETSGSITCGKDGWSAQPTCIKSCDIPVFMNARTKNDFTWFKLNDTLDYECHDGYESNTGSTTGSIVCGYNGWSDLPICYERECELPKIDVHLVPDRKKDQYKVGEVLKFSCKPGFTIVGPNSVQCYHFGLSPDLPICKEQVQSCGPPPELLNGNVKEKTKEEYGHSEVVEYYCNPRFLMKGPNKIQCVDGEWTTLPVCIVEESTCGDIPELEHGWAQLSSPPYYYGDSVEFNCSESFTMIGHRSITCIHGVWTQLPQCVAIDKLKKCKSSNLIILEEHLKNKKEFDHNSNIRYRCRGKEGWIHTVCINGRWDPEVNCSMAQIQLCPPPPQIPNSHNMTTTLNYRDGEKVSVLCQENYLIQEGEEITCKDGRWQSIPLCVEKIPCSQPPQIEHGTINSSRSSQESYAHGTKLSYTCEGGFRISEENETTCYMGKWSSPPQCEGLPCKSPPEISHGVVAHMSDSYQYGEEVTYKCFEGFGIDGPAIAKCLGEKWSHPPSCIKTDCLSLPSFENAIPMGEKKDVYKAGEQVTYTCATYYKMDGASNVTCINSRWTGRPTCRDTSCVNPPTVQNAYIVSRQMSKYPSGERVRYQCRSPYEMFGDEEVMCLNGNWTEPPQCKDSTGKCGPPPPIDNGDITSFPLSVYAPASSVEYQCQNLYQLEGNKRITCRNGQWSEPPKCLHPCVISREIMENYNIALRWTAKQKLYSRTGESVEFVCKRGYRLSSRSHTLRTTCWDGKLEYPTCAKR
T8 sequence (P08603 19-1231 limits assumed): as above

B1: Ab7960/293i (antibody, IgG1, V domains shown)
VH: LVESGGGVVQPGKSLRLSCVASGFSFSTYGMHWVRQAPGKGLEWVAVMSFDGKTKYYADSVKGRFTISRDNPKNTLYLQMNSLRSEDTAVYYCAKGGAAAAVFDSWGPGILLTVSS
VL: MTQSPNSLAVSLGGRATINCKASQSILYRSNNKNYLAWYQHKAGQPPKLLIYWASTRESGVPERFSGSGSRTDFTLTINGLQAEDVAVYYCQQYYNPPWTFGQGTKVEIK
notes: Recombinant human antibody with IgG1 heavy chain backbone and kappa light chain constant; they begin at LVESGGG and MTQSP; also called mAb 7960; mAb7960
B1 displayed a concentration giving a half-maximal response (EC50) in experiment [1] of 7.82 ng/mL. In addition, the binding result in experiment [2], in experiment [3] and in [16] was “binds” each time. For the same molecule, the AtheNA signal was 4 in experiment [4]; 3 in experiment [5]; 4 with Sm (sphingomyelin) [6]; 3 with ribonucleoprotein (RNP) [7]; 4 in experiment [8]; 8 in experiment [9]. In addition, the AtheNA signal in [10] was 5; in experiment [11] it was 3; with Sm (sphingomyelin) [12] it was 2; with ribonucleoprotein (RNP) [13] it was 4; in experiment [14], 6; in experiment [15], 8. Further, the AtheNA signal in experiment [17] came out at 2; in [18] it was 1; in the experiment with Sm (sphingomyelin) [19], 2; with ribonucleoprotein (RNP) [20] it was 2; in experiment [21] it was 2; in [22], 7.

B2: Ab7970 (antibody, IgG1, V domains shown)
VH: LVESGGGVVQPGRSLRLSCAASGLTFSFYNFHWVRQTPGKGLEWVAGISYDATRTNYAGSVTGRFTISRDNSKKMLYLQMSSLGPQDTAVYHCARDRSDGQLHKVAFDSWGQGALVTVSS
VL: MTQSPDSLTLSLGERATINCRSSRTVLYRSNNKNYLAWYQHKPGQPPKLLMSWASTRETGVPDRFSGSGSGTHFTLTITSLQPEDVAVYYCQQYYSPPWTFGQGTKVEIR
notes: IgG1 heavy chain backbone and kappa constant; also called clone 18; pH007970/pK005991_6004
On to B2, for which the AtheNA signal was found to be 10 in the experiment with Sm (sphingomyelin) [23]; 34 in the experiment with ribonucleoprotein (RNP) [24]; 84 in experiment [25]; 12 with Sm (sphingomyelin) [26]; 44 with ribonucleoprotein (RNP) [27]; 120 in experiment [28]. In addition, the AtheNA signal with Sm (sphingomyelin) [29] stood at 22; in the experiment with ribonucleoprotein (RNP) [30], 56; in experiment [31], 165. Further, in [2], the binding result was “binds”.
